Test [1] concerns the target T1, FGFR2 receptor dimerization (Homo sapiens, UniProt P21802).
T1 construct: expressed in transfected cells
Nature of the test: NANOBIT assay of FGFR2 dimerization. Format: cell-based. The conditions noted are these: increasing antibody concentrations, cells stably expressing FGFR2. The source says:
FIG. 16A-16F provide schematic illustrations, blots and graphs related to the development of a NANOBIT® assay to measure FGFR2 dimerization. Such an assay is used to screen biparatopic screening for their ability to disrupt FGFR2 dimerization. […] The protein interactions bring the subunits into close proximity to form a functional enzyme that generates a bright, luminescent signal. (FIG. 16B). […] FIG. 16E presents a graph of the results of the NANOBIT® assay using NANOBIT® constructs with or without FGF10 ligand. […] As shown in the graph on the left side of FIG. 16F, certain of the antibodies A-F inhibited the growth of BaF3 cells stably overexpressing FGFR2 (FGFR2IIIb). Antibody D was used in the NANOBIT® assay (graph on the right of FIG. 16F). In the rightmost graph in FIG. 16F, the fold luminescence resulting from FGFR2 WT (wild type) in the assay is represented by the left bar in each set of three bars; the fold luminescence resulting from FGFR2+FGF10 ligand in the assay is represented by the middle bar in each set of three bars; and the fold luminescence resulting from +/−FGF10 ligand difference in the assay is represented by the right bar in each set of three bars shown in FIG. 16F.
A NANOBIT® assay was developed to measure FGFR2 dimerization in cells, and in particular to screen for biparatopic antibodies that were able to disrupt FGFR2 dimerization. […]

The target in a further test is T2, FGFR2IIIb.
T2 construct: also called purified FGFR2IIIb
T2 chain: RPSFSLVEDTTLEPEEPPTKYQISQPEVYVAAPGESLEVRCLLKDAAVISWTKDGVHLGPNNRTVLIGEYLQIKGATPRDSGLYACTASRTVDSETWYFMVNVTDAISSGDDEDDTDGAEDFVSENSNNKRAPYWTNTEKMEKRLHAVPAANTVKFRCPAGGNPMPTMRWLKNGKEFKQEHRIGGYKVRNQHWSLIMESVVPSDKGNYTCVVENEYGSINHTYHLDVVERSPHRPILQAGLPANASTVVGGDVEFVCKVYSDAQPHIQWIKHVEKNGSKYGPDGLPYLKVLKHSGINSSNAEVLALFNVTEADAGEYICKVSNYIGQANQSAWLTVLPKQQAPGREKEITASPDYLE
As to the kind of experiment: row 'Kd (nM) (patent)', value quoted from the source patent; method: Radioimmunoassay-purified FGFR2IIIb.

One molecule from patent US20230295308A1, “ANTAGONISTIC BIPARATOPIC ANTIBODIES THAT SPECIFICALLY BIND FIBROBLAST GROWTH FACTOR RECEPTOR 2 AND METHODS OF USING SAME” (The Broad Institute, Inc., priority 2020, published 2023) can be followed below.

A word on the Kd: it is the equilibrium constant for the complex coming apart. Read a low Kd as higher affinity.

T1 sequence (P21802 22-822 isoform P21802-3 limits assumed): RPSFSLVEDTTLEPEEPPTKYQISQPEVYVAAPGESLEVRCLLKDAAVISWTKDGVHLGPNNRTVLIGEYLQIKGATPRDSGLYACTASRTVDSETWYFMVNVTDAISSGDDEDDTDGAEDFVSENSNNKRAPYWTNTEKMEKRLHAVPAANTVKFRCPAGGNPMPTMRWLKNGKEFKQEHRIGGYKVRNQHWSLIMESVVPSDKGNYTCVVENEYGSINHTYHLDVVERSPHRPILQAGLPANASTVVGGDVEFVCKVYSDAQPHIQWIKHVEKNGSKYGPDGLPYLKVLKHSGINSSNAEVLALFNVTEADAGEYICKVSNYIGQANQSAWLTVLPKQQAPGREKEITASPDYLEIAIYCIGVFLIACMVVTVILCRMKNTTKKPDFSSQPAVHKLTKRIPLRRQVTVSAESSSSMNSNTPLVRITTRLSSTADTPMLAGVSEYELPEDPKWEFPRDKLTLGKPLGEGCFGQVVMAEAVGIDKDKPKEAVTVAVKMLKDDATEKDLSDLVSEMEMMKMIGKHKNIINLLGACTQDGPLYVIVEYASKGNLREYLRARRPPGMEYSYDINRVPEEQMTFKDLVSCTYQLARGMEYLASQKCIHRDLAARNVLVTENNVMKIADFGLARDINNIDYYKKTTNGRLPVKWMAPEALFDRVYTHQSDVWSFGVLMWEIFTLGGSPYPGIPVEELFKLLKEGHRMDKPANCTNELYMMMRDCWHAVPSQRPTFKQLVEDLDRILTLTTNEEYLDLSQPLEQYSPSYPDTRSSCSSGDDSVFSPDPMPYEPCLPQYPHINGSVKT
T1 sequence (P21802 22-822 isoform P21802-3 limits assumed): as above

B1: 2B 1.3.12 (antibody, V domains shown)
VH: EVQLVESGGGLVQPGGSLRLSCAASGFPFTSTGISWVRQAPGKGLEWVGRTHLGDGSTNYADSVKGRFTISADTSKNTAYLQMNSLRAEDTAVYYCARTYGIYDTYDMYTEYVMDYWGQGTLVTVSS
VL: DIQMTQSPSSLSASVGDRVTITCRASQDVDTSLAWYKQKPGKAPKLLIYSASFLYSGVPSRFSGSGSGTDFTLTISSLQPEDFATYYCQQSTGHPQTFGQGTKVEIK
notes: the duobody scheme implies IgG1 with K409R or F405L; also called Antibody D; GE
As to B1, the “blocking of FGF-induced dimerization of the FGFR2 receptor” value in test [1] is “blocks”. Further, the equilibrium dissociation constant (Kd) with FGFR2IIIb is 3 nM.
